Laboratory results as given in paper doi:10.1101/2023.07.21.550003 (bioRxiv, 2023).

Biological target: T1, canonical HER2, extracellular region (residues 22-587) (human, UniProt P04626)
T1 construct: HER2 (ERBB2), human, extracellular region spanning residues 22-587, amplified from the complete cDNA clone BC156755 / P04626; Cloned in a modified p3XFLAG-CMV-25 vector; also called ERBB2; human epidermal growth factor receptor 2; source: HEK293F, transfected, purified from supernatant (HisTrap, Superdex200); not shown: FLAG, N-terminal, kept
Test: flow cytometry on cells; yeast clones displaying scFv (anti-c-myc-FITC for display) incubated with purified Flag-tagged HER2 variants at room temperature for 2 hours; anti-Flag iFluor 647
Settings: one partner purified

B1: Clone 32 (scFv displayed on yeast) (scFv, V domains shown)
VH: EVQLVESGGGLVQPGGSLRLSCAASGFTFGEYTMDWVRQAPGKGLEWVADVNPNSGGSIYNKRFKGRFTLSVDRSKNTLYLQMNSLRAEDTAVYYCARNLGPSFYFDYWGQGTLVTVSS
VL: DIQMTQSPSSLSASVGDRVTITCKASQDVSIGVAWYQQKPGKAPKLLIYSASYRYTGVPSRFSGSGSGTDFTLTISSLQPEDFATYYCQQYYIYPYTFGQGTKVEIK
notes: as the heavy-chain variable region of m4 (Pertuzumab, PDB 1S78), with the changes of clone 32 among the 14 library positions; linker: three repeats of G4S between the VH and VL; as the light-chain variable region of m4 (Pertuzumab, PDB 1S78); The methods also say the library was built 'based on the AAL160 template antibody'; source: S. cerevisiae EBY100, yeast surface display (pCTCON2)
binding result: binds
